Consider four molecules from patent US20250250357A1 (NANJING ZAIMING PHARMACEUTICAL, published 2025).

The target of test [1] is T1, human MSLN-FL-his protein (human, UniProt Q13421 296-580).
T1 construct: also called human MSLN full-length protein; hMSLN-FL-his; not shown: His tag
Nature of the test: ELISA, coated antigen; antibody 0.1 nM.

Test [2] concerns the target T1, human MSLN-FL-his protein. In words: ELISA, coated antigen; no antibody (blank, column 'none').
Test [3] addresses T2, human MSLN-R2-his protein (human, UniProt Q13421 391-486).
T2 construct: also called human MSLN-R2 protein; hMSLN-R2-his; not shown: His tag
In words: ELISA, coated antigen; antibody 0.1 nM. On the technique in general: In an ELISA, binding on a coated surface is turned into a signal by an enzyme label.
T2 sequence (Q13421 other isoform, or with tags, fused parts or gaps): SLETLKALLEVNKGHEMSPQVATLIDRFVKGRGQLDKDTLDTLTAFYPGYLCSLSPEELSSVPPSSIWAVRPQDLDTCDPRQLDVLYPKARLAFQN

The target of test [4] is T2, human MSLN-R2-his protein. In words: ELISA, coated antigen; antibody 0.0001 nM.
Test [5] concerns the target T2, human MSLN-R2-his protein. Nature of the test: ELISA, coated antigen; antibody 100 nM.
Test [6] concerns the target T2, human MSLN-R2-his protein. In words: ELISA, coated antigen; antibody 1 nM.
For test [7], the target named is T1, human MSLN-FL-his protein. In words: ELISA, coated antigen; antibody 10 nM.
For test [8], the target named is T3, human MSLN-R1-his protein (human, UniProt Q13421 296-390).
T3 construct: also called human MSLN-R1 protein; hMSLN-R1-his; not shown: His tag
In words: ELISA, coated antigen; antibody 100 nM.

In test [9] the target is T2, human MSLN-R2-his protein. In words: ELISA, coated antigen; antibody 0.001 nM.
In test [10] the target is T3, human MSLN-R1-his protein. Nature of the test: ELISA, coated antigen; antibody 0.001 nM.
Test [11] has as its target T3, human MSLN-R1-his protein. In words: ELISA, coated antigen; no antibody (blank, column 'none').
In test [12] the target is T3, human MSLN-R1-his protein. Nature of the test: ELISA, coated antigen; antibody 0.1 nM.
Test [13] deals with T1, human MSLN-FL-his protein. Nature of the test: ELISA, coated antigen; antibody 0.0001 nM.
Test [14] deals with T3, human MSLN-R1-his protein. Nature of the test: ELISA, coated antigen; antibody 0.0001 nM.
For test [15], the target named is T1, human MSLN-FL-his protein. In words: ELISA, coated antigen; antibody 0.01 nM.
Test [16] has as its target T2, human MSLN-R2-his protein. In words: ELISA, coated antigen; antibody 0.01 nM.
In test [17] the target is T3, human MSLN-R1-his protein. In words: ELISA, coated antigen; antibody 0.01 nM.
Test [18] deals with T2, human MSLN-R2-his protein. In words: ELISA, coated antigen; antibody 10 nM.
In test [19] the target is T1, human MSLN-FL-his protein. Nature of the test: ELISA, coated antigen; antibody 0.001 nM.
Test [20] has as its target T1, human MSLN-FL-his protein. In words: ELISA, coated antigen; antibody 1 nM.
For test [21], the target named is T3, human MSLN-R1-his protein. Nature of the test: ELISA, coated antigen; antibody 10 nM.
The target of test [22] is T3, human MSLN-R1-his protein. Nature of the test: ELISA, coated antigen; antibody 1 nM.
Test [23] has as its target T1, human MSLN-FL-his protein. In words: ELISA, coated antigen; antibody 100 nM.
Test [24] addresses T2, human MSLN-R2-his protein. Nature of the test: ELISA, coated antigen; no antibody (blank, column 'none').
In test [25] the target is T4, human MSLN-R3-his protein (human, UniProt Q13421 487-598).
T4 construct: also called hMSLN-R3-his; not shown: His tag
Nature of the test: ELISA; antibody 0.01 nM.

In test [26] the target is T5, human MSLN-R2-his protein (human, UniProt Q13421 391-486).
T5 construct: also called hMSLN-R2-his; not shown: His tag
Nature of the test: ELISA; antibody 0.1 nM.

The target in test [27] is T4, human MSLN-R3-his protein. In words: ELISA; antibody 10 nM.
For test [28], the target named is T5, human MSLN-R2-his protein. In words: ELISA; antibody 1 nM.
The target in test [29] is T5, human MSLN-R2-his protein. In words: ELISA; antibody 0.0001 nM.
Test [30] concerns the target T4, human MSLN-R3-his protein. Nature of the test: ELISA; antibody 0 nM (blank).
For test [31], the target named is T4, human MSLN-R3-his protein. In words: ELISA; antibody 100 nM.
For test [32], the target named is T4, human MSLN-R3-his protein. Nature of the test: ELISA; antibody 0.0001 nM.
Test [33] addresses T4, human MSLN-R3-his protein. In words: ELISA; antibody 0.1 nM.
The target in test [34] is T5, human MSLN-R2-his protein. Nature of the test: ELISA; antibody 0.01 nM.
Test [35] concerns the target T5, human MSLN-R2-his protein. Nature of the test: ELISA; antibody 0 nM (blank).
In test [36] the target is T4, human MSLN-R3-his protein. Nature of the test: ELISA; antibody 1 nM.
Test [37] deals with T5, human MSLN-R2-his protein. In words: ELISA; antibody 1 nM. This is another data set of the same source.
Test [38] deals with T5, human MSLN-R2-his protein. Nature of the test: ELISA; antibody 10 nM.
Test [39] deals with T5, human MSLN-R2-his protein. In words: ELISA; antibody 0.001 nM.
For test [40], the target named is T4, human MSLN-R3-his protein. In words: ELISA; antibody 0.001 nM.
In test [41] the target is T4, human MSLN-R3-his protein. Nature of the test: ELISA; antibody 1 nM. The source holds these as a separate data set.
Test [42] addresses T5, human MSLN-R2-his protein. Nature of the test: ELISA; antibody 100 nM.
Test [43] has as its target T6, monkey MSLN on HEK293T-monkey MSLN recombinant cells (monkey).
T6 construct: Full-length precursor as transfected; processing on the cell is not described; also called HEK293-monkey MSLN
T6 chain: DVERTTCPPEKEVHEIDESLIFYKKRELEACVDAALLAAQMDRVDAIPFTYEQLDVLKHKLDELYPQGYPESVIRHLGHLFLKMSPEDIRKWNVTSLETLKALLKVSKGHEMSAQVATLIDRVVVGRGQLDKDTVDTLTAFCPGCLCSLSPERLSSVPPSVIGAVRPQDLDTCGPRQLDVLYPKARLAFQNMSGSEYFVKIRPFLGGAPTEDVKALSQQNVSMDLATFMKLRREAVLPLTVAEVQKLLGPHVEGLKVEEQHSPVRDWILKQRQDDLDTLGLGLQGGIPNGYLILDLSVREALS
Nature of the test: FACS, HEK293T-monkey MSLN cells. A general note: Flow cytometry measures light scatter and fluorescence of single cells or particles in a stream.

The target in test [44] is T7, human MSLN-R3 on HEK293T-hMSLN-R3 recombinant cells (human, UniProt Q13421 487-606).
T7 construct: the C-terminal limit is uncertain; also called human MSLN-R3 membrane protein
In words: FACS, HEK293T-hMSLN-R3 cells.

In test [45] the target is human MSLN on OVCAR3 tumor cells (human, UniProt Q13421 296-598). In words: FACS, OVCAR3 cells.
Sequence of human MSLN on OVCAR3 tumor cells (Q13421 other isoform, or with tags, fused parts or gaps): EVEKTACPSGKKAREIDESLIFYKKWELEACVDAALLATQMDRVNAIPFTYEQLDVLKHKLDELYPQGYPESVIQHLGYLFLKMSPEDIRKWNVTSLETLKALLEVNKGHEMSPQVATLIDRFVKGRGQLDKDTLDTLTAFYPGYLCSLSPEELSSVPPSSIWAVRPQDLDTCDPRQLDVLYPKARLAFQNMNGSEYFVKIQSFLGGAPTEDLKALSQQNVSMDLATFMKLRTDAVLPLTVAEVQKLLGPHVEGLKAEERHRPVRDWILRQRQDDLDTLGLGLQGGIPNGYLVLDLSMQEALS

T7 sequence (Q13421 495-614): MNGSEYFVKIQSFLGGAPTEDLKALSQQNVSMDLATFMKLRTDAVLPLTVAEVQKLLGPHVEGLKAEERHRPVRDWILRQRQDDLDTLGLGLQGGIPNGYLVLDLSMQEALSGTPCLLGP
T1 sequence (Q13421 other isoform, or with tags, fused parts or gaps): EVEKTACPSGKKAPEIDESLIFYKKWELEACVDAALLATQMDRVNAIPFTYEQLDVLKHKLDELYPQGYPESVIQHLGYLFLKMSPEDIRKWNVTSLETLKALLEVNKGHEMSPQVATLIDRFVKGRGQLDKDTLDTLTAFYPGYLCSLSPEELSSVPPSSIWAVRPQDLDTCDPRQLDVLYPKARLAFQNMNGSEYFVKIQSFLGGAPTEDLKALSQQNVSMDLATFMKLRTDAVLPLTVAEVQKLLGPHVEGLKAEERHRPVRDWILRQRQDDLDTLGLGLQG
T3 sequence (Q13421 other isoform, or with tags, fused parts or gaps): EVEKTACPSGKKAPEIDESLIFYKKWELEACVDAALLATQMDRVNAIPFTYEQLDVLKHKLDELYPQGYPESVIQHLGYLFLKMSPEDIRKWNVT
T4 sequence (Q13421 495-606): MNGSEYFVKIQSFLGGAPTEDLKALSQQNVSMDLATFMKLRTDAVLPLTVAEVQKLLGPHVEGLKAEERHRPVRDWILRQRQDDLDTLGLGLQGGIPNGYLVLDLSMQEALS

B1: S009-F6-76.1 (antibody, human IgG1, kappa, V domains shown)
VH: QVQLQQSGPELVKPGASVKISCKASGYTFTDYYINWVKQRPGQGLEWIGWIFPGRGSTFYYEKFKGKATLTVDKSSSTAYMLLSSLTSEDSAVYFCARRGDSAGYEDLDYWGQGTSVTVSS
VL: NIVMTQSPKFMSMSVGERVTLSCKASENVVTYVSWYQQKPKQSPKLLIYGASKRYTGVPDRFTGSGSATDFTLTISSVQAEDLGDYHCGQSYSYPYTFGGGTKLEIKR
notes: Human-murine chimeric antibody, human IgG1/kappa constant regions
In the case of B1, the OD450 in test [1] was 2.4 OD450; in [2], 0.05 OD450; in [3], 0.07 OD450; in [4], 0.05 OD450; in test [5], 0.33 OD450; in [6], 0.12 OD450. The OD450 is 2.87 OD450 in [7]; 0.06 OD450 in test [8]; 0.04 OD450 in [9]; 0.04 OD450 in test [10]; 0.04 OD450 in [11]; 0.04 OD450 in test [12]. The OD450 in test [13] was found to be 0.1 OD450; in [14], 0.04 OD450; in [15], 1.09 OD450; in test [16], 0.04 OD450; in test [17], 0.04 OD450; in test [18], 0.2 OD450. Further, the OD450 in test [19] came out at 0.29 OD450; in test [20], 2.87 OD450; in test [21], 0.04 OD450; in test [22] it was 0.04 OD450; in [23], 2.83 OD450; in test [24], 0.05 OD450.

B2: Tab106 (YP218, hIgG1) (antibody, V domains shown)
VH: QQQLEESGGGLVKPEGSLTLTCKASGFDLGFYFYACWVRQAPGKGLEWIACIYTAGSGSTYYASWAKGRFTISKASSTTVTLQMTSLAAADTATYFCARSTANTRSTYYLNLWGPGTLVTVSS
VL: DVVMTQTPASVSEPVGGTVTIKCQASQRISSYLSWYQQKPGQRPKLLIFGASTLASGVPSRFKGSGSGTEYTLTISDLECADAATYYCQSYAYFDSNNWHAFGGGTEVVVRT
notes: Control antibody; VH and VL recombined into human IgG1 CH and CL expression vectors; also called YP218 human IgG1 antibody; anti-human MSLN-R3 antibody
As for B2, the OD450 nm in test [25] was 0.06; in test [26], 0.05; in [27], 1.75; in test [28], 0.05; in test [29] it was 0.04; in test [30], 0.05. Further, the OD450 nm worked out at 2.29 in [31]; 0.05 in test [32]; 0.12 in test [33]; 0.04 in test [34]; 0.05 in test [35]; 0.62 in test [36]. The OD450 nm in test [37] was 0.05; in [38], 0.11; in test [39], 0.04; in test [40], 0.05; in test [41], 0.62; in test [42], 0.7.

B3: F7.44.20-VL-VH (scFv)
chain: QIVLTQSPALMSASPGEKVTLTCSASSSVISSYLSWYQQKPGSSPKLLIYRTSNLASGVPARFSGSGSGTSYSLTISSMEAEDAASYFCHQWSSFPYTFGGGTKLEIKGGGGSGGGGSGGGGSEVQLQQSGPELVKPGASVKIPCKASGYTFTDYNMDWVKQSHGKSLEWIGDINPSTGGTIYNQKFNGKATLTEDKSASTVYMEFRSLTSDDTAVYYCARRRIGTGYFDVWGTGTTVTVSS
As usually defined, the EC50 is the concentration giving half of the maximal effect. On to B3, for which the half-maximal effective concentration (EC50) in test [43] amounted to 2.97 nM; in [44], 0.48 nM; in test [45], 1.09 nM. For the same molecule, the Maximum_MFI in [43] was 11100 MFI; in test [44], 1850 MFI; in test [45] it was 2920 MFI.

B4: F7.44.20 (scFv)
chain: EVQLQQSGPELVKPGASVKIPCKASGYTFTDYNMDWVKQSHGKSLEWIGDINPSTGGTIYNQKFNGKATLTEDKSASTVYMEFRSLTSDDTAVYYCARRRIGTGYFDVWGTGTTVTVSSGGGGSGGGGSGGGGSQIVLTQSPALMSASPGEKVTLTCSASSSVISSYLSWYQQKPGSSPKLLIYRTSNLASGVPARFSGSGSGTSYSLTISSMEAEDAASYFCHQWSSFPYTFGGGTKLEIK
For the molecule B4, the EC50 in [43] was determined as 8.38 nM; in test [44] it was 1.27 nM; in [45] it was 2.42 nM. The results for the Maximum_MFI in [43], in [44] and in test [45] were 7040 MFI, 1450 MFI and 1600 MFI, respectively.
